According to US20140087995A1 (published 2014):
Numbered stars: 1 amine (or outer) side, 2 acyl side, 3 side chain; on linkers, the order of the positions; unused ones are H or OH. Bridge positions count the residues as written; N and C are the ends. Side chains are listed from the residue outwards. Ends that are not written are not given here. * marks the point of attachment. C20 diacid = O=C(O)CCCCCCCCCCCCCCCCCCC(=O)*; C16 diacid = O=C(O)CCCCCCCCCCCCCCC(=O)*; γGlu = O=C(O)[C@H](CCC(=O)[*:2])N[*:1]; C14 diacid = O=C(O)CCCCCCCCCCCCC(=O)*; AEEA = NCCOCCOCC(=O)O

T1: rat amylin receptor (rat calcitonin receptor + rat RAMP 3) (rat, UniProt P32214 25-516; Q9JJ73 23-147)
T1 construct: whole, on cells; Membranes of transiently transfected BHK tk'ts 13 cells; also called rAmylin-R; rat amylin 3(a) receptor
T1 sequence (looked up) 1: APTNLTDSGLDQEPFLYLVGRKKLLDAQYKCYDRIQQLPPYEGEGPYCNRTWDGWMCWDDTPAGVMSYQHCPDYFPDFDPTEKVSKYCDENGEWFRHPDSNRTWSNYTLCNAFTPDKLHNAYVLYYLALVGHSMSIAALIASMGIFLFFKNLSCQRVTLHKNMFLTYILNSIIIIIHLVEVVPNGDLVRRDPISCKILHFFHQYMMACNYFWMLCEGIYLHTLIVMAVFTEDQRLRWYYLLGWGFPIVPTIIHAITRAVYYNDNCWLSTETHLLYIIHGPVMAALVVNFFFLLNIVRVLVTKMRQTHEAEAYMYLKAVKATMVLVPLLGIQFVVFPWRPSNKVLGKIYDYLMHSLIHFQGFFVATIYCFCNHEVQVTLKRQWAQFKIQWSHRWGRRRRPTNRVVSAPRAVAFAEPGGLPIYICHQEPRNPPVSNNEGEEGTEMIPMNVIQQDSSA
T1 sequence (looked up) 2: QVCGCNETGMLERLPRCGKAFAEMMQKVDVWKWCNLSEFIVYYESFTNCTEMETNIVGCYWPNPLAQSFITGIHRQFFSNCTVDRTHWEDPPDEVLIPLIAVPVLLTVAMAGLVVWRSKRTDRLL

T2: human calcitonin receptor (human, UniProt P30988 25-474)
T2 construct: whole, on cells; Membranes of stably transfected cells; also called hCTR; hCT
T2 sequence (looked up): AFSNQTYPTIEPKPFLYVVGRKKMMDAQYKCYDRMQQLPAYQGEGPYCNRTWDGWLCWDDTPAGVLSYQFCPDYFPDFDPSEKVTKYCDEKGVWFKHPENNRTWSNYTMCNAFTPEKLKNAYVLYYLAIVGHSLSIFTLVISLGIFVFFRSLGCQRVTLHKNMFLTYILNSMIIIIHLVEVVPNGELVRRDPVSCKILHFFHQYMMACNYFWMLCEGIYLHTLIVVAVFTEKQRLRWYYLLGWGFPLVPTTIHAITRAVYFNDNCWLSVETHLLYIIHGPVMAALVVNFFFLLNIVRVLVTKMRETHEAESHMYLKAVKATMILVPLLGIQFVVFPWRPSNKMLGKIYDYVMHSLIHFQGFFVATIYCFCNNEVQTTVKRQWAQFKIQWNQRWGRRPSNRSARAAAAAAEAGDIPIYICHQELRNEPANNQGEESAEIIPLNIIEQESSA

T3: rat calcitonin receptor (rat, UniProt P32214 25-516)
T3 construct: whole, on cells; Membranes of transiently transfected BHK tk'ts 13 cells; also called rCTR; rat calcitonin (a) receptor
T3 sequence (looked up): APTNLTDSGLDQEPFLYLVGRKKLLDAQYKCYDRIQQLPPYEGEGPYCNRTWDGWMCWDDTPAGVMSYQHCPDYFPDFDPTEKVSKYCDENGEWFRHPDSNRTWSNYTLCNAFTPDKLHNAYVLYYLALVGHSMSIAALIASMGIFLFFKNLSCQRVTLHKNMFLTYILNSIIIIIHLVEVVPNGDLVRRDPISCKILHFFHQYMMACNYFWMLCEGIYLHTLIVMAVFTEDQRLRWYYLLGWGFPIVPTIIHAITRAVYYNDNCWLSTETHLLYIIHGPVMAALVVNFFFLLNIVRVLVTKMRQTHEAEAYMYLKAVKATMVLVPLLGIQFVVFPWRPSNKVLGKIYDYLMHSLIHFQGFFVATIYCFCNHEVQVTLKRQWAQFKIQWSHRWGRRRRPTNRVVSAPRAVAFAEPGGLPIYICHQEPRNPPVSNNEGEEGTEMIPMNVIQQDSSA


Legend:
[1] = target: T1, rat amylin receptor (rat calcitonin …); assay: SPA competition with 125I-rat amylin on membranes of BHK tk'ts 13 cells with rat calcitonin receptor + rat RAMP3 (Assay VI)
[2] = target: T2, human calcitonin receptor; assay: ratio of IC50 on human calcitonin receptor to IC50 on human amylin receptor (reference m42), SPA competition
Procedure: The resulting pellet was resuspended, homogenized and centrifuged (20.000 rpm, 15 min) in a buffer containing 20 mM Na-HEPES and 0.1 mM EDTA (pH 7.4, buffer 2). The resulting pellet was resuspended in buffer 2 and protein concentration was measured (BCA protein Assay, Pierce). The homogenate was kept cold during the whole procedure. The membranes were kept at −80° C. until use. The assay was performed in a 384 well Optiplate (PerkinElmer) in a total volume of 40 ul. Membranes were mixed with SPA beads. Final concentration of membranes 35 ng/μL final and SPA beads was 0.05 mg/well. Test-compounds were dissolved in DMSO and further diluted in assay buffer (50 mM Hepes, pH 7.4, 1 mM CaCl2, 5 mM MgCl₂, 0.1% OA and 0.02% Tween20). […] The final mixture was incubated with shaking at 400 rpm for 120 min at 25° C. prior to centrifugation (1500 rpm, 10 min). Samples were analyzed on TopCounter™ (Packard). The IC₅₀ was calculated using (one site binding competition analysis) GraphPad Prism5 as a measure of receptor affinity.
Membranes were prepared in the following way; the cells were rinsed with PBS and incubated with Versene for approximately 5 min before harvesting. The cells were flushed with PBS and the cell-suspension was centrifuged for 5 min at 1000 rpm. Cells were homogenized (Ultrathurrax) in a buffer containing 20 mM Na-HEPES and 10 mM EDTA (pH 7.4) and centrifuged at 20.000 rpm for 15 min. The resulting pellet was resuspended, homogenized and centrifuged (20.000 rpm, 15 min) in a buffer containing 20 mM Na-HEPES and 0.1 mM EDTA (pH 7.4, buffer 2). The resulting pellet was resuspended in buffer 2 and protein concentration was measured (BCA protein Assay, Pierce). The homogenate was kept cold during the whole procedure. The membranes were kept at −80° C. until use. Assay was performed in a 384 well Optiplate (PerkinElmer) in a total volume of 40 ul. Membranes were mixed with SPA beads.

rat calcitonin receptor [3] = target: T3, rat calcitonin receptor; assay: SPA competition with 125I-calcitonin on membranes of BHK tk'ts 13 cells with rat calcitonin receptor (Assay VIII)
rat calcitonin receptor [4] = target: T3, rat calcitonin receptor; assay: ratio of IC50 on rat calcitonin receptor to IC50 on rat amylin receptor (reference m40)

Row | IC50 [1] [nM] | Ratio hCT/hAmylin binding [2] | IC50 (rat calcitonin receptor [3]) [nM] | Ratio rCT/rAmylin binding (rat calcitonin receptor [4]) | Binder
1 | 0.529 | 79.6 | 62.2 | 118 | K([AEEA-AEEA-γGlu-C20 diacid])CNTATCATQRLANFLRHSSPNFGAIPSSTPVGSNTY-NH2 (disulfide 2-7; N-terminus assumed; SMILES CC[C@H](C)[C@H](NC(=O)[C@H](C)NC(=O)CNC(=O)[C@H](Cc1ccccc1)NC(=O)[C@H](CC(N)=O)NC(=O)[C@@H]1CCCN1C(=O)[C@H](CO)NC(=O)[C@H](CO)NC(=O)[C@H](Cc1c[nH]cn1)NC(=O)[C@H](CCCNC(=N)N)NC(=O)[C@H](CC(C)C)NC(=O)[C@H](Cc1ccccc1)NC(=O)[C@H](CC(N)=O)NC(=O)[C@H](C)NC(=O)[C@H](CC(C)C)NC(=O)[C@H](CCCNC(=N)N)NC(=O)[C@H](CCC(N)=O)NC(=O)[C@@H](NC(=O)[C@H](C)NC(=O)[C@@H]1CSSC[C@H](NC(=O)[C@@H](N)CCCCNC(=O)COCCOCCNC(=O)COCCOCCNC(=O)CC[C@H](NC(=O)CCCCCCCCCCCCCCCCCCC(=O)O)C(=O)O)C(=O)N[C@@H](CC(N)=O)C(=O)N[C@@H]([C@@H](C)O)C(=O)N[C@@H](C)C(=O)N[C@@H]([C@@H](C)O)C(=O)N1)[C@@H](C)O)C(=O)N1CCC[C@H]1C(=O)N[C@@H](CO)C(=O)N[C@@H](CO)C(=O)N[C@H](C(=O)N1CCC[C@H]1C(=O)N[C@H](C(=O)NCC(=O)N[C@@H](CO)C(=O)N[C@@H](CC(N)=O)C(=O)N[C@H](C(=O)N[C@@H](Cc1ccc(O)cc1)C(N)=O)[C@@H](C)O)C(C)C)[C@@H](C)O, Synthetic acylated analogue of human amylin; also called compound 96)
2 | 0.137 | 74.1 | 24.1 | 176 | K([AEEA-AEEA-γGlu-C20 diacid])CNTATCATQRLANFLRHSSPNFGAIPSSTNVGPNTY-NH2 (disulfide 2-7; N-terminus assumed; SMILES CC[C@H](C)[C@H](NC(=O)[C@H](C)NC(=O)CNC(=O)[C@H](Cc1ccccc1)NC(=O)[C@H](CC(N)=O)NC(=O)[C@@H]1CCCN1C(=O)[C@H](CO)NC(=O)[C@H](CO)NC(=O)[C@H](Cc1c[nH]cn1)NC(=O)[C@H](CCCNC(=N)N)NC(=O)[C@H](CC(C)C)NC(=O)[C@H](Cc1ccccc1)NC(=O)[C@H](CC(N)=O)NC(=O)[C@H](C)NC(=O)[C@H](CC(C)C)NC(=O)[C@H](CCCNC(=N)N)NC(=O)[C@H](CCC(N)=O)NC(=O)[C@@H](NC(=O)[C@H](C)NC(=O)[C@@H]1CSSC[C@H](NC(=O)[C@@H](N)CCCCNC(=O)COCCOCCNC(=O)COCCOCCNC(=O)CC[C@H](NC(=O)CCCCCCCCCCCCCCCCCCC(=O)O)C(=O)O)C(=O)N[C@@H](CC(N)=O)C(=O)N[C@@H]([C@@H](C)O)C(=O)N[C@@H](C)C(=O)N[C@@H]([C@@H](C)O)C(=O)N1)[C@@H](C)O)C(=O)N1CCC[C@H]1C(=O)N[C@@H](CO)C(=O)N[C@@H](CO)C(=O)N[C@H](C(=O)N[C@@H](CC(N)=O)C(=O)N[C@H](C(=O)NCC(=O)N1CCC[C@H]1C(=O)N[C@@H](CC(N)=O)C(=O)N[C@H](C(=O)N[C@@H](Cc1ccc(O)cc1)C(N)=O)[C@@H](C)O)C(C)C)[C@@H](C)O, Synthetic acylated analogue of human amylin; also called compound 98)
3 | 1.24 | 18.5 | 404 | 327 | K([γGlu-C16 diacid])CNTATCATQRLANFLRHSSPNFGAIPSSTNVGHNTY-NH2 (disulfide 2-7; N-terminus assumed; SMILES CC[C@H](C)[C@H](NC(=O)[C@H](C)NC(=O)CNC(=O)[C@H](Cc1ccccc1)NC(=O)[C@H](CC(N)=O)NC(=O)[C@@H]1CCCN1C(=O)[C@H](CO)NC(=O)[C@H](CO)NC(=O)[C@H](Cc1c[nH]cn1)NC(=O)[C@H](CCCNC(=N)N)NC(=O)[C@H](CC(C)C)NC(=O)[C@H](Cc1ccccc1)NC(=O)[C@H](CC(N)=O)NC(=O)[C@H](C)NC(=O)[C@H](CC(C)C)NC(=O)[C@H](CCCNC(=N)N)NC(=O)[C@H](CCC(N)=O)NC(=O)[C@@H](NC(=O)[C@H](C)NC(=O)[C@@H]1CSSC[C@H](NC(=O)[C@@H](N)CCCCNC(=O)CC[C@H](NC(=O)CCCCCCCCCCCCCCC(=O)O)C(=O)O)C(=O)N[C@@H](CC(N)=O)C(=O)N[C@@H]([C@@H](C)O)C(=O)N[C@@H](C)C(=O)N[C@@H]([C@@H](C)O)C(=O)N1)[C@@H](C)O)C(=O)N1CCC[C@H]1C(=O)N[C@@H](CO)C(=O)N[C@@H](CO)C(=O)N[C@H](C(=O)N[C@@H](CC(N)=O)C(=O)N[C@H](C(=O)NCC(=O)N[C@@H](Cc1c[nH]cn1)C(=O)N[C@@H](CC(N)=O)C(=O)N[C@H](C(=O)N[C@@H](Cc1ccc(O)cc1)C(N)=O)[C@@H](C)O)C(C)C)[C@@H](C)O, Synthetic acylated analogue of human amylin) [N^ε1-[(4S)-4-carboxy-4-(15-carboxypentadecanoylamino)butanoyl]-[Arg17,Pro21,Pro27,His34]-h-amylin]
4 | 2.52 | 23.5 | 707 | 280 | K([γGlu-C14 diacid])CNTATCATQRLANFLRHSSPNFGAIPSSTNVGHNTY-NH2 (disulfide 2-7; N-terminus assumed; SMILES CC[C@H](C)[C@H](NC(=O)[C@H](C)NC(=O)CNC(=O)[C@H](Cc1ccccc1)NC(=O)[C@H](CC(N)=O)NC(=O)[C@@H]1CCCN1C(=O)[C@H](CO)NC(=O)[C@H](CO)NC(=O)[C@H](Cc1c[nH]cn1)NC(=O)[C@H](CCCNC(=N)N)NC(=O)[C@H](CC(C)C)NC(=O)[C@H](Cc1ccccc1)NC(=O)[C@H](CC(N)=O)NC(=O)[C@H](C)NC(=O)[C@H](CC(C)C)NC(=O)[C@H](CCCNC(=N)N)NC(=O)[C@H](CCC(N)=O)NC(=O)[C@@H](NC(=O)[C@H](C)NC(=O)[C@@H]1CSSC[C@H](NC(=O)[C@@H](N)CCCCNC(=O)CC[C@H](NC(=O)CCCCCCCCCCCCC(=O)O)C(=O)O)C(=O)N[C@@H](CC(N)=O)C(=O)N[C@@H]([C@@H](C)O)C(=O)N[C@@H](C)C(=O)N[C@@H]([C@@H](C)O)C(=O)N1)[C@@H](C)O)C(=O)N1CCC[C@H]1C(=O)N[C@@H](CO)C(=O)N[C@@H](CO)C(=O)N[C@H](C(=O)N[C@@H](CC(N)=O)C(=O)N[C@H](C(=O)NCC(=O)N[C@@H](Cc1c[nH]cn1)C(=O)N[C@@H](CC(N)=O)C(=O)N[C@H](C(=O)N[C@@H](Cc1ccc(O)cc1)C(N)=O)[C@@H](C)O)C(C)C)[C@@H](C)O, Synthetic acylated analogue of human amylin) [N^ε1-[(4S)-4-carboxy-4-(13-carboxytridecanoylamino)butanoyl]-[Arg17,Pro21,Pro27,His34]-h-amylin]
